{
  "source": "patent WO2018135651A1",
  "about": "(dated 2018)",
  "binders": {"B1": {"name": "VHH-STM complex (antibody complex consisting of an anti-human survivin VHH antibody and a stefin A mutant) (VHH)", "VHH": "EVQLVESGGGSVQAGGSLRLSCAASGVSNTDMIMIWFRQAPGKEREGVLAAIYKNSTYYADSVKGRFTISQDNAKNTVYLQMNSLKPEDTAIYYCAAIRAVIGRHIRPHIYWGQGTQVTVSS", "notes": "Single-chain fusion: anti-human survivin VHH, linker, stefin A mutant (STM), His tag, C-terminal Cys; Secreted from Brevibacillus choshinensis and Ni-NTA purified; Adsorbed directly to the plate as capture reagent; also called VHH-STM conjugate; VHH antibody-STM conjugate"}},
  "target": "T1, Human survivin (1-142 aa, N-terminal calmodulin tag, recombinant, #SUR0801, ATGen Co., Ltd.) (human, UniProt O15392 1-142)",
  "T1 construct": "range 1-142; Bought recombinant protein, used in solution at 100, 10 and 1 ng/mL; also called antigen; not shown: N-terminal calmodulin tag of the bought product",
  "T1 sequence (O15392 whole entry, the tested form may be a part)": "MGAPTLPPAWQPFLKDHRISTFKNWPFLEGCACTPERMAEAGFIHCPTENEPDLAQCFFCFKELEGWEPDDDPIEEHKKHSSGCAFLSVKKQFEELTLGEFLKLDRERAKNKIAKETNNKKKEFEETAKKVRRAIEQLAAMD",
  "assay": "sandwich ELISA; VHH-STM complex adsorbed to the plate as capture, survivin in solution, detection with rabbit anti-survivin polyclonal antibody",
  "data": [
    {"binder": "B1", "values": [
      {"measurement": "binding result", "result": "binds"}
    ]}
  ]
}
